Earlier results, collected in publication PMC2363349.

Molecular target: TGF-βRII (Homo sapiens) (UniProt P37173)
Sequence (P37173 23-166): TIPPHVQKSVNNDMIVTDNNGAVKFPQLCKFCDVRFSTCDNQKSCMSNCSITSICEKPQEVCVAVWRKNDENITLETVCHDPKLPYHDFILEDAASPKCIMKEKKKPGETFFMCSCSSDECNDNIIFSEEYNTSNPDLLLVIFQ

TGF-β1, sequence (P01137 279-390): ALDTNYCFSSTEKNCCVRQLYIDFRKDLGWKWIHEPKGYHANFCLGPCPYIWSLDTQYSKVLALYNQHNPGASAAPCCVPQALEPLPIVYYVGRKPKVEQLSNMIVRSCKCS

Substance: TGF-β1 (from UniProt P01137)
- Kd: 0.5 nM
